Results from the supplement of paper PMC9170038.

Test system: MS2 coat protein
Experiment: apparent KD of MS2 coat protein; designed switch direction (-1 OFF switch, 1 ON switch): -1; higher = weaker reporter binding
Summary of the method: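 SNAP-549-labelled MS2 coat protein was titrated, doubling from 0.7 or 1.5 nM to 3 µM, over designed RNA switches transcribed on Illumina chips by stalled E. coli RNA polymerase. Runs were done without input, with 200 uM small-molecule ligand, or with an oligonucleotide input. Apparent KD is the per-design median over clusters of curve-fitted normalised fluorescence.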

[1] = input ligand: microRNA oligo, concentration not stated
[2] = Eterna round: R95, input ligand: FMN 200 uM
[3] = Eterna round: R95, input ligand: microRNA oligo, concentration not stated
[4] = Eterna round: R95, input ligand: none

Row | Sequence | apparent KD of MS2 coat protein [1] | apparent KD of MS2 coat protein (input ligand: FMN 200 uM) | apparent KD of MS2 coat protein (input ligand: none) | apparent KD of MS2 coat protein [2] | apparent KD of MS2 coat protein [3] | apparent KD of MS2 coat protein [4]
1 | GAACUGAGGCAAAGCUUUAGUCGUACAUGAGGAUCACCCAUGUAGGAUAUGGUAGGCUUUGCUUACCAGAAGGACAGAGUGAUC [Mat - Exclusion NG 3 - Mod of JL - D59] (Eterna round: R96, puzzle: Exclusion NG 3) | 0.0763 µM | – | – | – | – | –
2 | AGGUCACAUGAGGAUCACCCAUGUCAGGAUAUCGUCACUGGAGCCUCGGCUCCAGUGACGAGAAGGGAUAAUUA [E1/8-A2] (Eterna round: R97, puzzle: Exclusion 1) | – | 0.0753 µM | 0.0505 µM | – | – | –
3 | AAAUACCGGUGAGGAUAUUUAUAAUAGAACUUUAUGAUAUACAUGAGGAUCACCCAUGUUACUUUAAAGAAGGCAUCGGAUAAA [Mat - Exclusion NG 2 - Mod of JL - D89] (Eterna round: R96, puzzle: Exclusion NG 2) | 0.0139 µM | – | – | – | – | –
4 | GGACGGUUAGUCAGGAUAUGCUCUACCUCGGUAGAGCAGAAGGGACAUGAGGAUCACCCAUGUGAAAACUGUUC [Omei Ex4B B37] (Eterna round: R97, puzzle: Brourd's mod of Exclusion 4) | – | 0.0302 µM | 0.0249 µM | – | – | –
5 | CCUCAUAUUUAGGAUAUGAUUGGUAAUUAUUAGUUAGAAGGAGGUACAUGAGGAUCACCCAUGUAAAAUUUUUU [-13.7, -10.8 kcal, 32% A] (Eterna round: R97, puzzle: Exclusion 6) | – | 0.0197 µM | 0.0196 µM | – | – | –
6 | AUUUAAACAUAGGAUAUCGAAUUUAUCAUUUAACGAGAAGGAUGAACAUGAGGAUCACCCAUGUGGUAUCAUGG [Mat - Exclusion 6 - JL Mod - D4] (puzzle: Exclusion 6) | – | – | – | 0.398 µM | 0.279 µM | 0.368 µM
7 | UUAUUAUAUGUAGGAUAUGCAUAUUAUUAUUAUGCAGAAGGACAUGAGGAUCACCCAUGUAUAUUGUUAUUAUAUAUUAUAUAU [Title] (Eterna round: R96, puzzle: Exclusion NG 1) | 0.0217 µM | – | – | – | – | –
8 | AGAGAAUACUCAGGAUAUCUGAAUAGAUAGAGAAGAGAAGGGAGACAUGAGGAUCACCCAUGUGAAGUCUUGAGGCUGCAUGGA [Prohibition 24 - Jieux - Exclusion NG 1] (Eterna round: R96, puzzle: Exclusion NG 1) | 0.0856 µM | 0.165 µM | 0.209 µM | – | – | –
9 | AGUACUAACACGAACGUGUUAGUACAAUAAGCUUGUGAAACAUGAGGAUCACCCAUGUCCUCAUAAGCUCGUCUUAU [salish99_TOv2_r3_034] (puzzle: Sensor v3, turn-off variant 2) | – | – | – | 0.0179 µM | 0.775 µM | 0.0162 µM
10 | GAUUAUGCGAGCUUUAGGGACAUGAGGAUCACCCAUGUUCGUCUUAUUGAUCUGGAUACACUAACAUACCUAAAUCU [JMF 13] (puzzle: Sensor v3, turn-off variant 1) | – | – | – | 0.0268 µM | 0.0323 µM | 0.0252 µM
11 | UAUUCUAGAUAGGAUAUACUUUUUUUUUUUUUCGUAGAAGGAUCUACAUGAGGAUCACCCAUGUUUUCAGCAGU [JR_E6_Sub012] (puzzle: Exclusion 6) | – | – | – | – | 0.0483 µM | –
12 | AGUAACUAUCACGAAAGUGAUAGUUACAAAACAGGUGAAACAUGAGGAUCACCCAUGUCCUCAUUUGCUCGUCUUAU [Sensor 3 - 3] (puzzle: Sensor v3, turn-off variant 2) | – | – | – | 0.793 µM | 0.384 µM | 0.857 µM
13 | GCUGGUCAAGGAUAUACAUGAGGAUCACCCAUGUGAUUAGCAGUCCUCGGACUGCAAUGUAGAAGGUGACCAGC [E3/2-C1] (Eterna round: R97, puzzle: Exclusion 3) | – | 1.41 µM | 0.308 µM | – | – | –
14 | GAAUUAAUUAAUUAAUAAUACAUGAGGAUCACCCAUGUAGAUCCUACAUACAAGCUUUGUAGCUCGUCUUAUAAUUA [Stov1/3-A2] (Eterna round: R97, puzzle: Sensor, turn-off variant 1) | – | 0.33 µM | 0.48 µM | – | – | –
15 | CUGUGCACGCUGCGAUCCUACAUGAGGAUCACCCAUGUGGUCUGGUGGCGUGGGUCACCGGACUUGGCUCGUCUUGG [salish99_S_TOV1_R5_078] (Eterna round: R97, puzzle: Sensor, turn-off variant 1) | – | 0.129 µM | 0.15 µM | – | – | –
16 | CGGUAAAUAGGAUAUACAUGAGGAUCACCCAUGUUCCAUAGCACUCGGAGGGUUCCCAGUAGAAGGGUUGGCCU [EX3 C.17] (Eterna round: R97, puzzle: Exclusion 3) | – | 0.016 µM | 0.0194 µM | – | – | –
17 | AUUUAGAGAGGAUAUAUAUUUUAAAACAUGAGGAUCACCCAUGUAAUUUUAUGGGAGUAAAUAGAAGGCUCAUUUA [JMFs Solution 2] (puzzle: Exclusion 5) | – | – | – | 0.0543 µM | 0.0528 µM | 0.0531 µM

Row | Sequence | apparent KD of MS2 coat protein [1] | apparent KD of MS2 coat protein (input ligand: FMN 200 uM) | apparent KD of MS2 coat protein (input ligand: none) | apparent KD of MS2 coat protein [2] | apparent KD of MS2 coat protein [3] | apparent KD of MS2 coat protein [4]
18 | CUUCGUAUAGAGGAUAUAGGAUACGAAAGUGUCCUAGAAGGCUGUACAUGAGGAUCACCCAUGUACUUCAGAUC [Exclusion 6 - B - 14:e] (puzzle: Exclusion 6) | – | – | – | – | 0.0117 µM | –
19 | AUCCUACAUGAGGAUCACCCAUGUCAGGAUAUCCAAGAAAUCUGGCCGUAUCGGCCAGGGAGAAGGGACAUGGU [jl-ex1-4.63 ViennaUCT mod] (Eterna round: R97, puzzle: Exclusion 1) | – | 0.0853 µM | 0.049 µM | – | – | –
20 | GCCGAAAGUGUGAGGAUAUACCUAUGGAAACAUAGGUAGAAGGCACAUGAGGAUCACCCAUGUGUUUCAACGGC [Mat - Exclusion 4 - Eli Mod - D20] (Eterna round: R97, puzzle: Brourd's mod of Exclusion 4) | – | 0.067 µM | 0.0245 µM | – | – | –
21 | AACCUGAGGCAAAGCUUUAGGUGUACAUGAGGAUCACCCAUGUAGGAUAUGGUAGGCAAAGCUUACCAGAAGGACAUUGGCGUA [Mat - Exclusion NG 3 - Mod of JL - D41] (Eterna round: R96, puzzle: Exclusion NG 3) | 0.0938 µM | 0.418 µM | 0.119 µM | – | – | –
22 | GGUACUCAAAGAGUACCAAUACGAACAUGAGGAUCACCCAUGUAGGAUAUGCUACUCAAAGAGUAGCAGAAGGAUAUGAUCCAU [Far Half Aptamer v13] (Eterna round: R96, puzzle: Exclusion NG 3) | 0.0605 µM | – | – | – | – | –
23 | AGUAGUUGUUUCCGUUCUUACAUGAGGAUCACCCAUGUUUCUUGACGUGCACGCGAUGCUCGUCAGACUACCAGAUG [salish99_TOv1_r3_057] (puzzle: Sensor v3, turn-off variant 1) | – | – | – | 0.0576 µM | 0.0878 µM | 0.0817 µM
24 | AAAUAACAAGCAAUAAACCACAUGAGGAUCACCCAUGUAAAGGGUGAAUCGUCCACCCAAAAAAAAAAAAAAAAAUA [Mat - Sensor v2 - Eli mod - 147] (Eterna round: R96, puzzle: Sensor v2, turn-off variant) | 0.178 µM | 0.0433 µM | 0.0523 µM | – | – | –
25 | UACGAACUAGGAUAUGCAAUGGGCUCGCUUUCCUUCGAUAAACUUGAGGAUCACCCAAGUAGAAGGAGUUUGUA [Mod 38 - Jieux - Exclusion 2] (Eterna round: R97, puzzle: Exclusion 2) | – | 0.0408 µM | 0.0166 µM | – | – | –
26 | UAUGGUUAAGUCAGGAUAUACUAAUAGAAAUCUGAGUAGAAGGGACAUGAGGAUCACCCAUGUAUGGUAGUGUU [Ex4 #58] (Eterna round: R97, puzzle: Brourd's mod of Exclusion 4) | – | 0.0771 µM | 0.0552 µM | – | – | –
27 | CGGUGCUCGUGGAAACAUGAGGAUCACCCAUGUAGAGUUAGCGAGGAUAUCGGUAACACACAUCACGAGAAGGCGCGAACCUGU [Ex NG3 #6] (Eterna round: R96, puzzle: Exclusion NG 3) | 0.0121 µM | 0.0317 µM | 0.0208 µM | – | – | –
28 | UUUUUCGAACAAGCUUCGUACAUGAGGAUCACCCAUGUUUUUAGAUUUGAGUAGGUUUGUAUGGAAGUUCGUCUUAU [JR_SV3TOV1_Sub087] (puzzle: Sensor v3, turn-off variant 1) | – | – | – | 0.0323 µM | 0.159 µM | 0.0343 µM
29 | UGAUCUAGGCGAGGAUAUACAUGAGGAUCACCCAUGUAAGCGUGACAUGGAAACAUGUCACGUAUGUAGAAGGCGCCUAGAUCU [MOD ENG2 3.54 by JL] (Eterna round: R96, puzzle: Exclusion NG 2) | 0.0086 µM | – | 0.0133 µM | – | – | –
30 | AAGAAAGGUGACAUGGGCGACAUGAGGAUCACCCAUGUUACAAGCUUGUUGCUCGUCUUAUAAUUAACCCAUGUCAC [LRO Sensor-off var1-21 mod of Stov1-13-A1 by Brourd] (Eterna round: R97, puzzle: Sensor, turn-off variant 1) | – | 0.0161 µM | 0.018 µM | – | – | –
31 | AAUUCACAUGAGGAUCACCCAUGUCAGGAUAUGGUUUCACGUGUUUCUGUGCUUGAGGCCAGAAGGGACAGCUA (puzzle: Exclusion 1) | – | – | – | – | 0.0503 µM | –
32 | AUAUUACGAGGAUAUCGUCUCUCCCACAUGAGGAUCACCCAUGUUAUCCAUGUUUCGUUUCGAGAAGGCGUAAGUU [JR_E5_Sub071] (puzzle: Exclusion 5) | – | – | – | – | 0.0652 µM | –
33 | GUCUUCAUGACAUGAGGAUCACCCAUGUGUUAUUUGUUAACUAAGGAUAUAUUUUUAAUGUUGAGAUAGAAGGUAGUUUCGGUC [JR_ExcNG3_Sub090] (Eterna round: R96, puzzle: Exclusion NG 3) | 0.093 µM | 0.161 µM | 0.149 µM | – | – | –
34 | CGGUGUAGAGGAUAUACGUGAAUUUUGUUAUUUUUUAAUUUACAUGAGGAUCACCCAUGUAGAAGGCUAUAGCG [JR_Ex2_Sub086] (Eterna round: R97, puzzle: Exclusion 2) | – | 0.0234 µM | 0.0219 µM | – | – | –
